Test results taken from patent EP4717714A1.

Molecular target: PD-1 antigen with murine Fc tags (human) (UniProt Q15116)
Experiment: SPR (Biacore T200), PD-1-mFc captured by anti-mouse Fc antibody, 100 nM antibody injected

Chain of PD-1 antigen with murine Fc tags (human) (Q15116 25-167 limits assumed): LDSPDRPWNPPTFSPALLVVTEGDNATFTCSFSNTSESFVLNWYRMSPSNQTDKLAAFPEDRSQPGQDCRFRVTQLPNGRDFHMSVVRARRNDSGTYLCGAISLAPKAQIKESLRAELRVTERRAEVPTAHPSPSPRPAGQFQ

B1: JS001 (recombinant humanized anti-PD-1 monoclonal antibody reference article, Toripalimab) (antibody, human IgG4 S228P, kappa, V domains shown)
VH: QGQLVQSGAEVKKPGASVKVSCKASGYTFTDYEMHWVRQAPIHGLEWIGVIESETGGTAYNQKFKGRVTITADKSTSTAYMELSSLRSEDTAVYYCAREGITTVATTYYWYFDVWGQGTTVTVSS
VL: DVVMTQSPLSLPVTLGQPASISCRSSQSIVHSNGNTYLEWYLQKPGQSPQLLIYKVSNRFSGVPDRFSGSGSGTDFTLKISRVEAEDVGVYYCFQGSHVPLTFGQGTKLEIKR
  Bound antibody signal (RU): 128 RU
